B1: A137L1F8L5M3 (Fc fusion)
chain: YSEGTFTSDYSKYLDSQAAQDFVQWLLDGGPSSGAPPPSGGGGSGGGGSGGGGSAESKYGPPCPPCPAPEAAGGPSVFLFPPKPKDTLMISRTPEVTCVVVDVSQEDPEVQFNWYVDGVEVHNAKTKPREEQFASTYRVVSVLTVLHQDWLNGKEYKCKVSNKGLPSSIEKTISKAKGQPREPQVYTLPPSQEEMTKNQVSLTCLVKGFYPSDIAVEWESNGQPENNYKTTPPVLDSDGSFFLYSRLTVDKSRWQEGNVFSCSVMHEALHNHYTQKSLSLSLGGGGGAGGGGAGGGGADSSPLLQFGGQVRQRYLYTDDAQQTEAHLEIREDGTVGGAADQSPESLLQLKALKPGVIQILGVKTSRFLCQRPDGALYGSLHFDPEACSFRELLLEDGYNVYQSEAHGLPLHCPGNKSPHRDPAPRGPCRFLPLPGLPPALPEPPGILAPQPPDVGSSDPLAMVGPSQGRSPSYAS
B2: A175L1F8L5M3 (Fc fusion)
chain: YSEGTFTSDYSKYLDSQAAQDFVQWLLAGGPSSGAPPPSGGGGSGGGGSGGGGSAESKYGPPCPPCPAPEAAGGPSVFLFPPKPKDTLMISRTPEVTCVVVDVSQEDPEVQFNWYVDGVEVHNAKTKPREEQFASTYRVVSVLTVLHQDWLNGKEYKCKVSNKGLPSSIEKTISKAKGQPREPQVYTLPPSQEEMTKNQVSLTCLVKGFYPSDIAVEWESNGQPENNYKTTPPVLDSDGSFFLYSRLTVDKSRWQEGNVFSCSVMHEALHNHYTQKSLSLSLGGGGGAGGGGAGGGGADSSPLLQFGGQVRQRYLYTDDAQQTEAHLEIREDGTVGGAADQSPESLLQLKALKPGVIQILGVKTSRFLCQRPDGALYGSLHFDPEACSFRELLLEDGYNVYQSEAHGLPLHCPGNKSPHRDPAPRGPCRFLPLPGLPPALPEPPGILAPQPPDVGSSDPLAMVGPSQGRSPSYAS
B3: A352L1F8L5W (Fc fusion)
chain: HSQGTFTSDYSKYLDSQAAQDFVQWLLAGGPSSGAPPPSGGGGSGGGGSGGGGSAESKYGPPCPPCPAPEAAGGPSVFLFPPKPKDTLMISRTPEVTCVVVDVSQEDPEVQFNWYVDGVEVHNAKTKPREEQFASTYRVVSVLTVLHQDWLNGKEYKCKVSNKGLPSSIEKTISKAKGQPREPQVYTLPPSQEEMTKNQVSLTCLVKGFYPSDIAVEWESNGQPENNYKTTPPVLDSDGSFFLYSRLTVDKSRWQEGNVFSCSVMHEALHNHYTQKSLSLSLGGGGGAGGGGAGGGGAHPIPDSSPLLQFGGQVRQRYLYTDDAQQTEAHLEIREDGTVGGAADQSPESLLQLKALKPGVIQILGVKTSRFLCQRPDGALYGSLHFDPEACSFRELLLEDGYNVYQSEAHGLPLHLPGNKSPHRDPAPRGPARFLPLPGLPPALPEPPGILAPQPPDVGSSDPLSMVGPSQGRSPSYAS
B4: A352L1F8L5M1 (Fc fusion)
chain: HSQGTFTSDYSKYLDSQAAQDFVQWLLAGGPSSGAPPPSGGGGSGGGGSGGGGSAESKYGPPCPPCPAPEAAGGPSVFLFPPKPKDTLMISRTPEVTCVVVDVSQEDPEVQFNWYVDGVEVHNAKTKPREEQFASTYRVVSVLTVLHQDWLNGKEYKCKVSNKGLPSSIEKTISKAKGQPREPQVYTLPPSQEEMTKNQVSLTCLVKGFYPSDIAVEWESNGQPENNYKTTPPVLDSDGSFFLYSRLTVDKSRWQEGNVFSCSVMHEALHNHYTQKSLSLSLGGGGGAGGGGAGGGGAHPIPDSSPLLQFGGQVRQRYLYTDDAQQTEAHLEIREDGTVGGAADQSPESLLQLKALKPGVIQILGVKTSRFLCQRPDGALYGSLHFDPEACSFRERLLEDGYNVYQSEAHGLPLHLPGNKSPHRDPAPRGPARFLPLPGLPPALPEPPGILAPQPPDVGSSDPLSMVGGSQGRSPSYES
B5: A382L1F8L5M1 (Fc fusion)
chain: HSQGTFTSDYSKYLDSQAAQDFVQWLLDGGPSSGAPPPSGGGGSGGGGSGGGGSAESKYGPPCPPCPAPEAAGGPSVFLFPPKPKDTLMISRTPEVTCVVVDVSQEDPEVQFNWYVDGVEVHNAKTKPREEQFASTYRVVSVLTVLHQDWLNGKEYKCKVSNKGLPSSIEKTISKAKGQPREPQVYTLPPSQEEMTKNQVSLTCLVKGFYPSDIAVEWESNGQPENNYKTTPPVLDSDGSFFLYSRLTVDKSRWQEGNVFSCSVMHEALHNHYTQKSLSLSLGGGGGAGGGGAGGGGAHPIPDSSPLLQFGGQVRQRYLYTDDAQQTEAHLEIREDGTVGGAADQSPESLLQLKALKPGVIQILGVKTSRFLCQRPDGALYGSLHFDPEACSFRERLLEDGYNVYQSEAHGLPLHLPGNKSPHRDPAPRGPARFLPLPGLPPALPEPPGILAPQPPDVGSSDPLSMVGGSQGRSPSYES

How the values were obtained:
Assay in all cases: cell-based or functional assay
GCGR = biological target: GCGR
human GLP-1R = human GLP-1R (human, UniProt P43220 24-463)
β-klotho (KLB) = biological target: β-klotho (KLB)

| Binder | GCGR agonist activity (EC50, nM) (GCGR) [nM] | GLP-1R agonist activity (EC50, nM) (human GLP-1R) [nM] | FGF21 activity (EC50, nM) (β-klotho (KLB)) [nM] |
| --- | --- | --- | --- |
| B1 | 41.2 | 59.1 | 0.82 |
| B2 | 39.2 | 47.1 | 0.63 |
| B3 | 1.22 | 1.34 | 0.55 |
| B4 | 1.2 | 1.13 | 0.79 |
| B5 | 1.2 | 1.13 | 0.79 |

Reference: patent US20220340635A1 (ZHEJIANG DOER BIOLOGICS, published 2022)
